B1: Angiopoietin-2 (Homo sapiens), O15123-1 (parent)
chain: MWQIVFFTLSCDLVLAAAYNNFRKSMDSIGKKQYQVQHGSCSYTFLLPEMDNCRSSSSPYVSNAVQRDAPLEYDDSVQRLQVLENIMENNTQWLMKLENYIQDNMKKEMVEIQQNAVQNQTAVMIEIGTNLLNQTAEQTRKLTDVEAQVLNQTTRLELQLLEHSLSTNKLEKQILDQTSEINKLQDKNSFLEKKVLAMEDKHIIQLQSIKEEKDQLQVLVSKQNSIIEELEKKIVTATVNNSVLQKQQHDLMETVNNLLTMMSTSNSAKDPTVAKEEQISFRDCAEVFKSGHTTNGIYTLTFPNSTEEIKAYCDMEAGGGGWTIIQRREDGSVDFQRTWKEYKVGFGNPSGEYWLGNEFVSQLTNQQRYVLKIHLKDWEGNEAYSLYEHFYLSSEELNYRIHLKGLTGTAGKISSISQPGNDFSTKDGDNDKCICKCSQMLTGGWWFDACGPSNLNGMYYPQRQNTNKFNGIKWYYWKGSGYSLKATTMMIRPADF

Variants of: B1
Conditions: with tie2_human TEK

Variant	effect of a mutation on the interaction
MWQIVFFTLSCDLVLAAAYNNFRKSMDSIGKKQYQVQHGSCSYTFLLPEMDNCRSSSSPYVSNAVQRDAPLEYDDSVQRLQVLENIMENNTQWLMKLENYIQDNMKKEMVEIQQNAVQNQTAVMIEIGTNLLNQTAEQTRKLTDVEAQVLNQTTRLELQLLEHSLSTNKLEKQILDQTSEINKLQDKNSFLEKKVLAMEDKHIIQLQSIKEEKDQLQVLVSKQNSIIEELEKKIVTATVNNSVLQKQQHDLMETVNNLLTMMSTSNSAKDPTVAKEEQISFRDCAEVFKSGHTTNGIYTLTFPNSTEEIKAYCDMEAGGGGWTIIQRREDGSVDFQRTWKEYKVGFGNPSGEYWLGNEFVSQLTNQQRYVLKIHLKDWEGNEAYSLYEHFYLSSEELNYRIHLKGLTGTAGKISSISQPGNDFSTKDGDNDKCICKCSQMLTGGWWFDACGPSNLNGMYYPQRQNTNKANGIKWAAWKGSGYSLKATTMMIRPADF [F469A;Y475A;Y476A]	disrupting interaction
MWQIVFFTLSCDLVLAAAYNNFRKSMDSIGKKQYQVQHGSCSYTFLLPEMDNCRSSSSPYVSNAVQRDAPLEYDDSVQRLQVLENIMENNTQWLMKLENYIQDNMKKEMVEIQQNAVQNQTAVMIEIGTNLLNQTAEQTRKLTDVEAQVLNQTTRLELQLLEHSLSTNKLEKQILDQTSEINKLQDKNSFLEKKVLAMEDKHIIQLQSIKEEKDQLQVLVSKQNSIIEELEKKIVTATVNNSVLQKQQHDLMETVNNLLTMMSTSNSAKDPTVAKEEQISFRDCAEVFKSGHTTNGIYTLTFPNSTEEIKAYCDMEAGGGGWTIIQRREDGSVDFQRTWKEYKVGFGNPSGEYWLGNEFVSQLTNQQRYVLKIHLKDWEGNEAYSLYEHFYLSSEELNYRIHLKGLTGTAGKISSISQPGNDFSTKDGDNDKCICKCSQMLTGGWWFDACGPSNLNGMYYPQRQNTNEFNGIEWYYWKGSGYSLKATTMMIRPADF [K468E;K473E]	disrupting interaction

Reference: IntAct's records for PubMed 15893672
